Patent US10450596

Target: histone H3 trimethylated at lysine 9 (H3K9me3) in bulk calf thymus histones (Sigma)

B1: GST-tagged KDM4C (BPS Bioscience) (protein)
chain: EVAEVESPLNPSCKIMTFRPSMEEFREFNKYLAYMESKGAHRAGLAKVIPPKEWKPRQCYDDIDNLLIPAPIQQMVTGQSGLFTQYNIQKKAMTVKEFRQLANSGKYCTPRYLDYEDLERKYWKNLTFVAPIYGADINGSIYDEGVDEWNIARLNTVLDVVEEECGISIEGVNTPYLYFGMWKTTFAWHTEDMDLYSINYLHFGEPKSWYAIPPEHGKRLERLAQGFFPSSSQGCDAFLRHKMTLISPSVLKKYGIPFDKITQEAGEFMITFPYGYHAGFNHGFNCAESTNFATVRWIDYGKVAKLCTCRKDMVKISMDIFVRKFQPDRYQLWKQGKDIYTIDHTKPTPASTPEVKAWLQRRRKVRKASRS
  in vitro histone demethylation assay; H3K9me3 assessed by Western blot: Addition of purified KDM4C to histone substrates resulted in demethylation of H3K9me3
